The values below come from article PMC10397247.

The target in one assay is T1, 4H1348-bH.
T1 chain: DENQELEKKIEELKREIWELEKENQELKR
In words: two-hybrid library CCNG1.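 Also: natural log of median RNA to DNA barcode read ratio; higher means stronger binding.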

The next assay has as its target T2, 4H2586-bH.
T2 chain: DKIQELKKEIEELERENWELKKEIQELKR
In words: two-hybrid library CCNG1.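 Also: natural log of median RNA to DNA barcode read ratio; higher means stronger binding.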

The next assay addresses T3, 4H1081-bH.
T3 chain: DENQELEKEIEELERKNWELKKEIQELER
In words: two-hybrid library CCNG1.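 Also: natural log of median RNA to DNA barcode read ratio; higher means stronger binding.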 As to conditions: mean of both orientations.

A further assay addresses T4, 4H780-bH.
T4 chain: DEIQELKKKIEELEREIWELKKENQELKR
The assay is described as follows: two-hybrid library CCNG1.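 Also: natural log of median RNA to DNA barcode read ratio; higher means stronger binding.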

In the next assay the target is T5, 4H1710-bH.
T5 chain: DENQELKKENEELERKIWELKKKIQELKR
The assay is described as follows: two-hybrid library CCNG1.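 Also: natural log of median RNA to DNA barcode read ratio; higher means stronger binding.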

The next assay concerns the target T6, O6-bS.
T6 chain: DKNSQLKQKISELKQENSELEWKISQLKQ
The assay is described as follows: two-hybrid library CCNG1.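 Also: natural log of median RNA to DNA barcode read ratio; higher means stronger binding.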

For the next assay, the target named is T7, 4H346-bH.
T7 chain: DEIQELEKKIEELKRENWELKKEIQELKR
In words: two-hybrid library CCNG1.

In a further assay the target is T8, 4H3298-bH.
T8 chain: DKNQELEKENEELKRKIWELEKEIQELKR
The assay is described as follows: two-hybrid library CCNG1.

For a further assay, the target named is T9, 4H3926-bH.
T9 chain: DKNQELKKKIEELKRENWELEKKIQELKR
In words: two-hybrid library CCNG1. As to conditions: mean of both orientations.

The target of another assay is T10, 4H2702-bH.
T10 chain: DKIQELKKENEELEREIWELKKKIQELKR
In words: two-hybrid library CCNG1.

The next assay has as its target T11, 4H918-bH.
T11 chain: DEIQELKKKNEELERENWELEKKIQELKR
In words: two-hybrid library CCNG1.

Another assay concerns the target T12, 4H1899-bH.
T12 chain: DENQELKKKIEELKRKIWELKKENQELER
In words: two-hybrid library CCNG1.

A further assay deals with T13, 4H754-bH.
T13 chain: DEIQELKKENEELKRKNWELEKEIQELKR
The assay is described as follows: two-hybrid library CCNG1.

Another assay deals with T14, 4H3462-bH.
T14 chain: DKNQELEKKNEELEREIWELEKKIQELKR
The assay is described as follows: two-hybrid library CCNG1.

For the next assay, the target named is T15, 4H855-bH.
T15 chain: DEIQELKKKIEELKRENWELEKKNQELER
In words: two-hybrid library CCNG1.

Another assay addresses T16, 4H170-bH.
T16 chain: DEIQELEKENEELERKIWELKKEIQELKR
The assay is described as follows: two-hybrid library CCNG1.

The next assay has as its target T17, 4H575-bH.
T17 chain: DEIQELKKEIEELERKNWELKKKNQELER
In words: two-hybrid library CCNG1.

Another assay has as its target T18, 4H1373-bH.
T18 chain: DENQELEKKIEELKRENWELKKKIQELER
In words: two-hybrid library CCNG1.

Another assay deals with T19, 4H3427-bH.
T19 chain: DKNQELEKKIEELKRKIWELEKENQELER
In words: two-hybrid library CCNG1.

A further assay deals with T20, 4H3162-bH.
T20 chain: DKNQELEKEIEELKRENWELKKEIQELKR
In words: two-hybrid library CCNG1.

A further assay deals with T21, 4H2627-bA.
T21 chain: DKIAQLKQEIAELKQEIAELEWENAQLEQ
The assay is described as follows: two-hybrid library CCNG1.

For a further assay, the target named is T22, 4H3497-bH.
T22 chain: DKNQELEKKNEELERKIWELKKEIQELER
The assay is described as follows: two-hybrid library CCNG1.

Another assay has as its target T23, 4H4073-bH.
T23 chain: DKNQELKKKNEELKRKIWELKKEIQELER
The assay is described as follows: two-hybrid library CCNG1.

The next assay has as its target T24, 4H2673-bH.
T24 chain: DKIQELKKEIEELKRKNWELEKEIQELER
In words: two-hybrid library CCNG1.

The next assay has as its target T25, 4H3112-bH.
T25 chain: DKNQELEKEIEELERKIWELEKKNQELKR
The assay is described as follows: two-hybrid library CCNG1.

Another assay deals with T26, 4H2627-bH.
T26 chain: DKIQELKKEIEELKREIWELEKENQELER
In words: two-hybrid library CCNG1.

In the next assay the target is T27, 4H953-bN.
T27 chain: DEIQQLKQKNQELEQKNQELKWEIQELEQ
In words: two-hybrid library CCNG1.

A further assay concerns the target T28, 4H2717-bA.
T28 chain: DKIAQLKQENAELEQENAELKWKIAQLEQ
The assay is described as follows: two-hybrid library CCNG1.

A further assay has as its target T29, 4H797-bH.
T29 chain: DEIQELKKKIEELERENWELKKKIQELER
The assay is described as follows: two-hybrid library CCNG1.

For a further assay, the target named is T30, 4H683-bH.
T30 chain: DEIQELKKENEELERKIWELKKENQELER
The assay is described as follows: two-hybrid library CCNG1.

A further assay concerns the target T31, 4H112-bH.
T31 chain: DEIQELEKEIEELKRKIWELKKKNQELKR
In words: two-hybrid library CCNG1.

In the next assay the target is T32, 4H1158-bH.
T32 chain: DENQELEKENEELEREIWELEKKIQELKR
The assay is described as follows: two-hybrid library CCNG1.

The next assay has as its target T33, 4H1544-bH.
T33 chain: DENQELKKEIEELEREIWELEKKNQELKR
In words: two-hybrid library CCNG1.

The target in a further assay is T34, 4H3613-bH.
T34 chain: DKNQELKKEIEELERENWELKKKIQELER
The assay is described as follows: two-hybrid library CCNG1.

The target in the next assay is T35, 4H1831-bH.
T35 chain: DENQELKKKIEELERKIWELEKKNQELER
The assay is described as follows: two-hybrid library CCNG1.

Another assay concerns the target T36, 4H1985-bH.
T36 chain: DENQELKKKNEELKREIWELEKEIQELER
The assay is described as follows: two-hybrid library CCNG1.

Another assay addresses T37, 4H118-bH.
T37 chain: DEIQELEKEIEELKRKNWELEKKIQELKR
The assay is described as follows: two-hybrid library CCNG1.

In the next assay the target is T38, 4H591-bH.
T38 chain: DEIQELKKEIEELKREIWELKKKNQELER
In words: two-hybrid library CCNG1.

The target in a further assay is T39, 4H968-bH.
T39 chain: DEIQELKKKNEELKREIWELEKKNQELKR
In words: two-hybrid library CCNG1.

The target of the next assay is T40, 4H953-bH.
T40 chain: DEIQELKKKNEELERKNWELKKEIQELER
In words: two-hybrid library CCNG1.

The target of a further assay is T41, 4H3175-bH.
T41 chain: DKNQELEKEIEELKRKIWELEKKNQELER
In words: two-hybrid library CCNG1.

A further assay concerns the target T42, 4H626-bH.
T42 chain: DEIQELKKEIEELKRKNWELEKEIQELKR
The assay is described as follows: two-hybrid library CCNG1.

A further assay addresses T43, 4H906-bH.
T43 chain: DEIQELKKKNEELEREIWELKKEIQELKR
In words: two-hybrid library CCNG1.

A further assay deals with T44, 4H3277-bH.
T44 chain: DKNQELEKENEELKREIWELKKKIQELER
In words: two-hybrid library CCNG1.

The next assay addresses T45, 4H3010-bH.
T45 chain: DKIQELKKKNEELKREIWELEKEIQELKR
The assay is described as follows: two-hybrid library CCNG1.

A further assay has as its target T46, 4H457-bH.
T46 chain: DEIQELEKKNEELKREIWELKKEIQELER
In words: two-hybrid library CCNG1.

A further assay deals with T47, 4H3628-bH.
T47 chain: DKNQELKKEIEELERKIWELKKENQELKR
The assay is described as follows: two-hybrid library CCNG1.

Another assay deals with T48, O7-bS.
T48 chain: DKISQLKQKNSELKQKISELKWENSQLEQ
The assay is described as follows: two-hybrid library CCNG1.

The next assay concerns the target T49, O12-bS.
T49 chain: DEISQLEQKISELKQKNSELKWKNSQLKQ
The assay is described as follows: two-hybrid library CCNG1.

The target of a further assay is T50, O16-bS.
T50 chain: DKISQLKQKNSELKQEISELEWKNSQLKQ
The assay is described as follows: two-hybrid library CCNG1.

The target of another assay is T51, O9-bS.
T51 chain: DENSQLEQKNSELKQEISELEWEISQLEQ
In words: two-hybrid library CCNG1.

The target in the next assay is T52, O4-bS.
T52 chain: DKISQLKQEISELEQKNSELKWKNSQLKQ
The assay is described as follows: two-hybrid library CCNG1.

The next assay has as its target T53, O13-bS.
T53 chain: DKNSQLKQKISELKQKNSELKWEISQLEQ
The assay is described as follows: two-hybrid library CCNG1.

Another assay addresses T54, O3-bS.
T54 chain: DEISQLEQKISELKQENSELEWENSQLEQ
The assay is described as follows: two-hybrid library CCNG1.

In another assay the target is T55, O8-bS.
T55 chain: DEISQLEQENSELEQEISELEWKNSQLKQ
The assay is described as follows: two-hybrid library CCNG1.

The next assay deals with T56, O10-bS.
T56 chain: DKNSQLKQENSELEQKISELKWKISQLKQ
The assay is described as follows: two-hybrid library CCNG1.

For a further assay, the target named is T57, O14-bS.
T57 chain: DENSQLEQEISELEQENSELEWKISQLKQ
In words: two-hybrid library CCNG1.

The next assay addresses T58, O1-bS.
T58 chain: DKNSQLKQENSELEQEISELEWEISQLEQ
The assay is described as follows: two-hybrid library CCNG1.

Another assay has as its target T59, O2-bS.
T59 chain: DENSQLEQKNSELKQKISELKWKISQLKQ
The assay is described as follows: two-hybrid library CCNG1.

A further assay addresses T60, O11-bS.
T60 chain: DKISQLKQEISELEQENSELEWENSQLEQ
The assay is described as follows: two-hybrid library CCNG1.

Another assay addresses T61, O5-bS.
T61 chain: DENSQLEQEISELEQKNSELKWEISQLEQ
The assay is described as follows: two-hybrid library CCNG1.

A further assay has as its target T62, O15-bS.
T62 chain: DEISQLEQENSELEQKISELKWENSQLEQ
The assay is described as follows: two-hybrid library CCNG1.

The next assay deals with T63, Core_IIIN-es_KEEE.
T63 chain: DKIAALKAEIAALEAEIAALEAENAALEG
In words: two-hybrid library CCmax. Particulars: mean of both orientations.

DENQELEKEIEELERKNWELKKEIQELER [4H1081-bH]: the interaction score in the assay with 4H1348-bH is -1.51; in the assay with 4H2586-bH, -2.05; in the assay with 4H1081-bH, -1.95; with 4H780-bH it was -0.372; in the assay with 4H1710-bH, -2.01; in the assay with O6-bS, 1.86. Also, the interaction score with 4H346-bH was 0.118; with 4H3298-bH, -0.0402; with 4H3926-bH it was 1.74; with 4H2702-bH, 1.09; with 4H918-bH it was -0.0748; with 4H1899-bH it was -0.674. The interaction score in the assay with 4H754-bH is -0.22; with 4H3462-bH it was -0.765; in the assay with 4H855-bH, -0.163; in the assay with 4H170-bH it was -0.0634; with 4H575-bH, -2.22; with 4H1373-bH it was -1.35. Moreover, the interaction score is -0.522 with 4H3427-bH; -0.705 with 4H3162-bH; 0.747 with 4H2627-bA; -1.2 with 4H3497-bH; -1.25 with 4H4073-bH; -0.0547 in the assay with 4H2673-bH. For the same molecule, the interaction score was -0.896 with 4H3112-bH; 0.276 in the assay with 4H2627-bH; -0.336 with 4H953-bN; -0.543 in the assay with 4H2717-bA; -0.717 in the assay with 4H797-bH; -0.574 with 4H683-bH. Besides, the interaction score with 4H112-bH is -1.77; in the assay with 4H1158-bH, 0.0141; with 4H1544-bH it was -1.4; with 4H3613-bH it was -1.47; with 4H1831-bH, -1.05; in the assay with 4H1985-bH, -1.01. For the same molecule, the interaction score with 4H118-bH is -1.07; with 4H591-bH, -0.509; with 4H968-bH, -0.887; with 4H953-bH it was -0.931; with 4H3175-bH, -0.0753; with 4H626-bH, -0.576. Further, the interaction score with 4H906-bH is -0.686; in the assay with 4H3277-bH, -0.363; with 4H3010-bH, -1.02; with 4H457-bH, -0.677; with 4H3628-bH, -1.16.

As for DKNSQLKQENSELEQEISELEWEISQLEQ [O1-bS], the interaction score with O7-bS is -1.5; in the assay with O12-bS, -0.754; with O16-bS it was -1.87; with O9-bS, -1.23; in the assay with O4-bS it was -1.85; with O6-bS, -0.716. Moreover, the interaction score in the assay with O13-bS was -1.7; with O3-bS, -0.395; with O8-bS it was -0.794; in the assay with O10-bS it was -1.15; in the assay with O14-bS, -0.387; with O1-bS, -1.37. Further, the interaction score was 2.08 with O2-bS, -0.763 with O11-bS, -2 in the assay with O5-bS and -0.914 in the assay with O15-bS.

In turn, DEIAALEAKIAALKAKIAALKAKNAALKG [Core_IIIN-es_EKKK] came in with an interaction score with Core_IIIN-es_KEEE of 2.06.
